Test results published in patent US20220064295A1 (ITABMED HK, published 2022).

Experiments:
Test in all cases: BLI (Octet), antigen-Fc captured on anti-human Fc (AHC) biosensor, MSAP in solution
[1] = target: T1, Recombinant Human CD19 Fc Chimera (R&D Systems, Inc) (human, UniProt P15391 20-291)
T1 construct: Bought reagent; also called huCD19.Fc; human CD19 antigen; Fc part of the bought chimera not given
T1 sequence (looked up): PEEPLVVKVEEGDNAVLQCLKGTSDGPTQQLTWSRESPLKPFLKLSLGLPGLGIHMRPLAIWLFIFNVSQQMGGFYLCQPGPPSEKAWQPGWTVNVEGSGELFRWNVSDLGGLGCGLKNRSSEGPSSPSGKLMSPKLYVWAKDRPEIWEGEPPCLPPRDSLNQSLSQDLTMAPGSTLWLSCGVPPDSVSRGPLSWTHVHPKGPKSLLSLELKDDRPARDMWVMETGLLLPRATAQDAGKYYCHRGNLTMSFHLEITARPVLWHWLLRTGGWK
Method: (§1) The expression of the CD3 antigen constructs has been described in U.S. Pat. No. 8,846,042. The CD3 antigen constructs or the CD19 antigen (Cynomolgus/Rhesus CD19 Protein (Fc Tag), Sino Biological. Inc; Recombinant Human CD19 Fc Chimera, R&D Systems. Inc) were diluted to 0.02 mg/mL with dilution (PBS), and then immobilized on an anti-Human Fc capture (AHC) biosensor. […] Control wells containing PBS only were also set up. The detection results were analyzed using ForteBio Data Acquisition and ForteBio Data Analysis software.

[2] = target: T2, Cynomolgus/Rhesus CD19 Protein (Fc Tag) (Sino Biological, Inc) (cynomolgus monkey (Cynomolgus/Rhesus), UniProt F7F486 20-292 (rhesus entry))
T2 construct: Bought reagent; also called cynoCD19.Fc; cynomolgus CD19 antigen
T2 sequence: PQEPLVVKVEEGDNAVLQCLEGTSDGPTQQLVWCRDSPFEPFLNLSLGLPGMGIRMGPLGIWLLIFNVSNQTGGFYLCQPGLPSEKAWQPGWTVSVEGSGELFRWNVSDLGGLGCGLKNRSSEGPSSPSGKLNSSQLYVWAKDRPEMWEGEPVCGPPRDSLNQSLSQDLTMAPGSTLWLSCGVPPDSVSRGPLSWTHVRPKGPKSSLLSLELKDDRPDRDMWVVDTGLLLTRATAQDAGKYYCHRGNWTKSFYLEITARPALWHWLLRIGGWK
Method: as §1

[3] = target: T3, cynomolgus CD3 antigen construct cynoCD3εAA 1-27.Fc (cynomolgus monkey; human, UniProt Q95LI5 22-48)
T3 construct: range 1-27; not shown: human IgG Fc
T3 chain (looked up): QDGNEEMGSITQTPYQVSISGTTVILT
Method: as §1

Binder | Kd [1] | Kd [2] | Kd [3]
ITAB2009 CD19×CD3 MSAP (bispecific antibody, also called CD19×CD3 MSAP ITAB2009; bivalent format ITAB2009) chain 1: EVQLVESGGGLVQPGGSLRLSCAASGFTFNTYAMNWVRQAPGKGLEWVARIRSKYNNYATYYADSVKDRFTISRDDSKNTLYLQMNSLRAEDTAVYYCVRHGNFGNSYVSWFAYWGQGTMVTVSSGGGGSGGGGSGGGGSQAVVTQEPSLTVSPGGTVTLTCRSSTGAVTTSNYANWVQQKPGQAPRGLIGGTNKRAPGTPARFSGSLLGGKAALTLSGVQPEDEAEYYCALWYSNLWVFGGGTKLTVLSGGGGSQVQLVQSGPELIKPGGSVKMSCKASGYTFTSYVMHWVRQKPGQGLEWIGYINPYNDGTKYNEKFKGRATLTSDKSSSTAYMELSSLRSEDSAVYYCARGTYYYGSRVFDYWGQGTTVTVSSASTKGPSVFPLAPSSKSTSGGTAALGCLVKDYFPEPVTVSWNSGALTSGVHTFPAVLQSSGLYSLSSVVTVPSSSLGTQTYICNVNHKPSNTKVDKKVEPKSCPPCS chain 2: DVVMTQSPSSIPVTLGESVSISCRSSKSLQNVNGNTYLYWFQQRPGQSPQLLIYRMSNLNSGVPDRFSGSGSGTDFTLRISGVEPEDVGVYYCMQHLEYPITFGAGTKLEIKRTVAAPSVFIFPPSDEQLKSGTASVVCLLNNFYPREAKVQWKVDNALQSGNSQESVTEQDSKDSTYSLSSTLTLSKADYEKHKVYACEVTHQGLSSPVTKSFNRGECPPCS | 18.2 nM | 29.6 nM | 12.9 nM
ITAB2007 CD19×CD3 MSAP (bispecific antibody, One anti-CD19 scFv is fused at the N-terminus of the VH and a second at the N-terminus of the VL of an anti-CD3 Fab fragment; also called CD19×CD3 MSAP ITAB2007; bispecific trivalent ITAB2007) chain 1: DVVMTQSPSSIPVTLGESVSISCRSSKSLQNVNGNTYLYWFQQRPGQSPQLLIYRMSNLNSGVPDRFSGSGSGTDFTLRISGVEPEDVGVYYCMQHLEYPLTFGAGTKLEIKGGGGSGGGGSGGGGSQVQLVQSGPELIKPGGSVKMSCKASGYTFTSYVMHWVRQKPGQGLEWIGYINPYNDGTKYNEKFKGRATLTSDKSSSTAYMELSSLRSEDSAVYYCARGTYYYGSRVFDYWGQGTTVTVSSGGGGSEVQLVESGGGLVQPGGSLRLSCAASGFTFNTYAMNWVRQAPGKGLEWVARIRSKYNNYATYYADSVKDRFTISRDDSKNTLYLQMNSLRAEDTAVYYCVRHGNFGNSYVSWFAYWGQGTMVTVSSASTKGPSVFPLAPSSKSTSGGTAALGCLVKDYFPEPVTVSWNSGALTSGVHTFPAVLQSSGLYSLSSVVTVPSSSLGTQTYICNVNHKPSNTKVDKKVEPKSCPPCS chain 2: DVVMTQSPSSIPVTLGESVSISCRSSKSLQNVNGNTYLYWFQQRPGQSPQLLIYRMSNLNSGVPDRFSGSGSGTDFTLRISGVEPEDVGVYYCMQHLEYPLTFGAGTKLEIKGGGGSGGGGSGGGGSQVQLVQSGPELIKPGGSVKMSCKASGYTFTSYVMHWVRQKPGQGLEWIGYINPYNDGTKYNEKFKGRATLTSDKSSSTAYMELSSLRSEDSAVYYCARGTYYYGSRVFDYWGQGTTVTVSSGGGGSQAVVTQEPSLTVSPGGTVTLTCRSSTGAVTTSNYANWVQQKPGQAPRGLIGGTNKRAPGTPARFSGSLLGGKAALTLSGVQPEDEAEYYCALWYSNLWVFGGGTKLTVLGQPKAAPSVTLFPPSSEELQANKATLVCLISDFYPGAVTVAWKADSSPVKAGVETTTPSKQSNNKYAASSYLSLTPEQWKSHRSYSCQVTHEGSTVEKTVAPTECPPCS | 0.891 nM | 8.91 nM | 18.8 nM
